In patent publication US7803904 (Takeda / Millennium, dated 2010):

Key:
human α4β1 integrin [1] = molecular target: T1, human α4β1 integrin (human, UniProt P13612 34-1032; P05556 21-798); assay: functional adhesion assay, CHO/P transfectants, 4° C (FIG. 4B)
T1 construct: whole, on cells; Carried by Jurkat and Ramos cells (α4β1, not α4β7); also called α4β1 on Jurkat cells; α4β1 on Ramos cells
Description: (§1) Where DATK 32 was used in a preincubation with a cell line, prior to the start of the assay, the supernatant or buffer present in the wells (containing the transfectants) was aspirated in order to obtain volume of 0.5 ml total for the adhesion assay.
(§2) Assays were fixed as described above. Plates were washed by gentle inversion in a large beaker of phosphate buffered saline (PBS), followed by inversion in a beaker of PBS with 1.5% gluteraldehyde for fixation for a minimum of 1 hour. Adhesion was assessed by counting both lymphocytes and CHO cells in a field at 20× magnification. For each assay, the number of lymphocytes bound per CHO/P cell was averaged as a minimum of four fields with standard error. Results in each case are from one of three experiments performed with similar results.
(§3) Murine MAdCAM-1 specifically binds lymphocytes expressing α4β7 (and not α4β1). […] Binding of these cell lines was compared to that of transiently transfected CHO/P cells expressing murine MAdCAM-1 and human VCAM-1.

human α4β7 integrin [2] = molecular target: T2, human α4β7 integrin (human, UniProt P13612 34-1032; P26010 20-798); assay: cell adhesion, FIG. 4A
T2 construct: whole, on cells; also called α4β7 on RPMI 8866 cells; α4β7 on HuT 78 cells
Description: as §1, §2, §3

human α4β7 integrin [3] = molecular target: T2, human α4β7 integrin; assay: cell adhesion, FIG. 5 legend
Description: Clone pcD3huMAd4 (insert from clone 4) or pcD3huMAd20 (insert from clone 20) was transiently transfected into CHO/P cells.
Adhesion of the CHO/P transfectants to RPMI 8866 cells was blocked by preincubation with anti-α4β7 MAb ACT-1, but not by control IgG. […] To further characterize these distinct cDNAs, both clones were completely sequenced.

murine α4β7 integrin [4] = molecular target: T3, murine α4β7 integrin (mouse, UniProt Q00651 41-1039; P26011 20-806); assay: cell adhesion, L1-2 stable transfectants
T3 construct: whole, on cells; Carried by the murine T cell lymphoma TK1; also called α4β7 on TK1 cells

human α4β1 integrin [5] = molecular target: T1, human α4β1 integrin; assay: cell adhesion assay, CHO/P transfectants
murine α4β7 integrin [6] = molecular target: T3, murine α4β7 integrin; assay: cell adhesion, CHO/P transient transfectants
human α4β7 integrin [7] = molecular target: T2, human α4β7 integrin; assay: cell adhesion assay, CHO/P transfectants
human α4β1 integrin [8] = molecular target: T1, human α4β1 integrin; assay: cell adhesion, FIG. 4B legend
Description: as §1, §2, §3

T2 sequence (P13612 34-1032, chain 1 of 2): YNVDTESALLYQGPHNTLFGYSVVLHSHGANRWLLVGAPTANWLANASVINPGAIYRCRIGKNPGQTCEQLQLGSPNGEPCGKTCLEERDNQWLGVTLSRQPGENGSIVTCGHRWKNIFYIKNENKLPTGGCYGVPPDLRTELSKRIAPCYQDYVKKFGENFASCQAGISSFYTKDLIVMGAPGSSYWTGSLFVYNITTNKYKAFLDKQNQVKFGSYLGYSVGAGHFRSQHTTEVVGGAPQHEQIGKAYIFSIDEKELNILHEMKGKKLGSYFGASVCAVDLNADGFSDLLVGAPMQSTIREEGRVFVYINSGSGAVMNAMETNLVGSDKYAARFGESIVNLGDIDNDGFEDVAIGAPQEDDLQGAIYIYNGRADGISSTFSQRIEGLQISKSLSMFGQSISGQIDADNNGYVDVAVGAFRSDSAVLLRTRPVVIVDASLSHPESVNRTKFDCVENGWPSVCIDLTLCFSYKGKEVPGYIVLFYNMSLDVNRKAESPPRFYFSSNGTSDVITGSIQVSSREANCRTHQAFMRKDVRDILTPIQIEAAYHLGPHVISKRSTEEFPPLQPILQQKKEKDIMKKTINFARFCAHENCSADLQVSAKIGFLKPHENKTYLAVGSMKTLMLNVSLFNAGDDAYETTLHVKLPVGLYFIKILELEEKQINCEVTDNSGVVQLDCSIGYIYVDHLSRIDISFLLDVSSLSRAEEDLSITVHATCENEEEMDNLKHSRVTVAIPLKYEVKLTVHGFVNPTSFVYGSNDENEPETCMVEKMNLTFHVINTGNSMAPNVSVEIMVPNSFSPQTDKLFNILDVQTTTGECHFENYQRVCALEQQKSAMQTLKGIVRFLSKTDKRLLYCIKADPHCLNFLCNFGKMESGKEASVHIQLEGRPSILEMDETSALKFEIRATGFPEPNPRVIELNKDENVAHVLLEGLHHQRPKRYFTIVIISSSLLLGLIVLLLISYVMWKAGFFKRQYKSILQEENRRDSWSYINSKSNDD
T2 sequence (P26010 20-798, chain 2 of 2): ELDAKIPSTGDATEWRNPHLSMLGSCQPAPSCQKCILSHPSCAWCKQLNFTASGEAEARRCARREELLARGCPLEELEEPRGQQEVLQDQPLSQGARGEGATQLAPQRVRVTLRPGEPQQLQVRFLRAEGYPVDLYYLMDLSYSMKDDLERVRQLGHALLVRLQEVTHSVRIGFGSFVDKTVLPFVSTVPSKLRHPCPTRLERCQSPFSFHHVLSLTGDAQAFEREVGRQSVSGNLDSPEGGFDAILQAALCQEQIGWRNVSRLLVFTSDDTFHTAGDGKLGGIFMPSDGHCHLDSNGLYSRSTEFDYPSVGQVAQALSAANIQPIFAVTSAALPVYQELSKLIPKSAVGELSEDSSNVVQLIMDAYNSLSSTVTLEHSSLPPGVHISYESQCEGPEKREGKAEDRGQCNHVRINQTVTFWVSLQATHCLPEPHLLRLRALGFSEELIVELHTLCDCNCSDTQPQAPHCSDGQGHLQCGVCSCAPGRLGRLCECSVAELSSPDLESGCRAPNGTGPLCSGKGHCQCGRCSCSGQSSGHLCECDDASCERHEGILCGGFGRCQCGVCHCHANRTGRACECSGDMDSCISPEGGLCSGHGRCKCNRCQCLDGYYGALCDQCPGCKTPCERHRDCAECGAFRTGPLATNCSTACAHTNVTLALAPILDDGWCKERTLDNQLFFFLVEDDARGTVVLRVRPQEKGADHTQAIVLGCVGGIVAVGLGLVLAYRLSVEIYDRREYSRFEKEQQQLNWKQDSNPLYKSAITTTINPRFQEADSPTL
T1 sequence (P13612 34-1032, chain 1 of 2): as the sequence (P13612 34-1032, chain 1 of 2) above
T1 sequence (P05556 21-798, chain 2 of 2): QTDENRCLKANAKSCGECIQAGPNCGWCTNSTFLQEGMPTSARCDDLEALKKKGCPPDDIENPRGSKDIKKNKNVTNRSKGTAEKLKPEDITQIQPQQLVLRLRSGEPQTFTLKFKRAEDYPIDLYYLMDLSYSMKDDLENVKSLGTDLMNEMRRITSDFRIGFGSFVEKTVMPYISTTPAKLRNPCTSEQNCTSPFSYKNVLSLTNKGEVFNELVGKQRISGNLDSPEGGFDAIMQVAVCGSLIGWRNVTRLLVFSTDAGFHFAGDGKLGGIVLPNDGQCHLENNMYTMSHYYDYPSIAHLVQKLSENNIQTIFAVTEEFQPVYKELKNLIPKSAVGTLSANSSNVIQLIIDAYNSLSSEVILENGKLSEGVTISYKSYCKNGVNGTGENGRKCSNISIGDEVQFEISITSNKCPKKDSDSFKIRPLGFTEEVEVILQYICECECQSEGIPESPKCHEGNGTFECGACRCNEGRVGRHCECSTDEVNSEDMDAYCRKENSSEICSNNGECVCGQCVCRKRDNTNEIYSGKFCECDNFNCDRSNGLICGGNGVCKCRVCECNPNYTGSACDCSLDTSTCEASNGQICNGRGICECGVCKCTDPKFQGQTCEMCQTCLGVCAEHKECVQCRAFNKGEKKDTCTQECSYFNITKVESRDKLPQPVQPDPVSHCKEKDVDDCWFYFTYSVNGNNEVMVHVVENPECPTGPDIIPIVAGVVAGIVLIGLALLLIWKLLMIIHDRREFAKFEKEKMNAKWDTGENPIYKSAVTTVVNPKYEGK
T3 sequence (Q00651 41-1039, chain 1 of 2): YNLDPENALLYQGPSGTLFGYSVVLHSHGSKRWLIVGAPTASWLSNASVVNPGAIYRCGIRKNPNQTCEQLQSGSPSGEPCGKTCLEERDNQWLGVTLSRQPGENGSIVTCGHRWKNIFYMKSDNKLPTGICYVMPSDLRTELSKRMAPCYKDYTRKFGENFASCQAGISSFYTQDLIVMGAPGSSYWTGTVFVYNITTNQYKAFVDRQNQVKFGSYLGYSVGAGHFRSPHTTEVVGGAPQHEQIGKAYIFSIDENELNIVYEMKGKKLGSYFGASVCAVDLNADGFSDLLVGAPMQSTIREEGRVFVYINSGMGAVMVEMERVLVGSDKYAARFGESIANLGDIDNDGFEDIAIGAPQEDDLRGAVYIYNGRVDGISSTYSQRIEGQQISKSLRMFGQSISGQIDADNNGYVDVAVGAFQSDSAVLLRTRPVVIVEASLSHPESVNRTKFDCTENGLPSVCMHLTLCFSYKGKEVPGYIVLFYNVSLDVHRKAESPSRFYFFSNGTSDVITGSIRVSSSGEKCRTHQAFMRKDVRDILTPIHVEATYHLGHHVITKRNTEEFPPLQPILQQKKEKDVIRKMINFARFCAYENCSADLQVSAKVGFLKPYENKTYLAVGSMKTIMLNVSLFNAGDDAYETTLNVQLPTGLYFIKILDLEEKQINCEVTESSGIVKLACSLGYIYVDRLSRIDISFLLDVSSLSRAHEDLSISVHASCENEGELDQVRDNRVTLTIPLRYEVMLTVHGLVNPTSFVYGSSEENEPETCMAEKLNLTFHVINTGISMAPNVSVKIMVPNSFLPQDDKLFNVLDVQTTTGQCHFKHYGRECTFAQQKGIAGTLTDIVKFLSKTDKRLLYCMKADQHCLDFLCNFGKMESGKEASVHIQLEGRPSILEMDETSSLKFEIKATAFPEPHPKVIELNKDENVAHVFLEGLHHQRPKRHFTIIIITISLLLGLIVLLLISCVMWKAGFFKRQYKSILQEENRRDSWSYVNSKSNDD
T3 sequence (P26011 20-806, chain 2 of 2): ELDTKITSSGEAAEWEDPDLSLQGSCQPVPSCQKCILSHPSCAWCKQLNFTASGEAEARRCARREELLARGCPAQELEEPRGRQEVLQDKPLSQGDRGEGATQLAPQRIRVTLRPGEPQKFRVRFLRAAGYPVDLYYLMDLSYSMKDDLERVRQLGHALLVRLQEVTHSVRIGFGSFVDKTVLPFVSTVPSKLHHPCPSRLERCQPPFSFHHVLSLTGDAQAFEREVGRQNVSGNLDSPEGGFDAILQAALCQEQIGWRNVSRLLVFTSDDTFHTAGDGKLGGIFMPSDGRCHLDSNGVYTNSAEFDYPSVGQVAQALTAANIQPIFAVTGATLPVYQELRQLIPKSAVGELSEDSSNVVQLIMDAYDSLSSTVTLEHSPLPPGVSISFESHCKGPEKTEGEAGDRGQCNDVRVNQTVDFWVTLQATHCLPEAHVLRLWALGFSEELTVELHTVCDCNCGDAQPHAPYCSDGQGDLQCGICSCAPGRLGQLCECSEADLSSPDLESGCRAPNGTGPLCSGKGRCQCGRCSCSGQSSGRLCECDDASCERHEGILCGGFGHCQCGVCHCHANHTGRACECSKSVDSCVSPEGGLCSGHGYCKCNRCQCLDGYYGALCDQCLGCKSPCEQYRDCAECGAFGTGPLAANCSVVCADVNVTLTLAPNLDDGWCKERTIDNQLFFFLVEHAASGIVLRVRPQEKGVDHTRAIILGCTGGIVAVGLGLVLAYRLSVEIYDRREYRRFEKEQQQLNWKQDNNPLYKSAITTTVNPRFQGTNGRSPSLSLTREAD

B1: murine MAdCAM-1 (receptor, mouse, UniProt Q61826 22-405, looked up)
chain: QSFQVNPPESEVAVAMGTSLQITCSMSCDEGVARVHWRGLDTSLGSVQTLPGSSILSVRGMLSDTGTPVCVGSCGSRSFQHSVKILVYAFPDQLVVSPEFLVPGQDQVVSCTAHNIWPADPNSLSFALLLGEQRLEGAQALEPEQEEEIQEAEGTPLFRMTQRWRLPSLGTPAPPALHCQVTMQLPKLVLTHRKEIPVLQSQTSPKPPNTTSAEPYILTSSSTAEAVSTGLNITTLPSAPPYPKLSPRTLSSEGPCRPKIHQDLEAGWELLCEASCGPGVTVRWTLAPGDLATYHKREAGAQAWLSVLPPGPMVEGWFQCRQDPGGEVTNLYVPGQVTPNSSSTVVLWIGSLVLGLLALVFLAYRLWKCYRPGPRPDTSSCTHL
notes: whole, on cells; Transiently expressed on CHO/P cells; also called pCDMAD-7
- binding result (human α4β1 integrin [1]): no binding
- binding result (human α4β7 integrin [2]): binds

B2: human MAdCAM-1 (cDNA clone 4) (receptor)
chain: QSLQVKPLQVEPPEPVVAVALGASRQLTCRLACADRGASVQWRGLDTSLGAVQSDTGRSVLTVRNASLSAAGTRVCVGSCGGRTFQHTVQLLVYAFPDQLTVSPAALVPGDPEVACTAHKVTPVDPNALSFSLLVGGQELEGAQALGPEVQEEEEEPQGDEDVLFRVTERWRLPPLGTPVPPALYCQATMRLPGLELSHRQAIPVLHSPTSPEPPDTTSPEPPNTTSPESPDTTSPESPDTTSQEPPDTTSQEPPDTTSQEPPDTTSPEPPDKTSPEPAPQQGSTHTPRSPGSTRTRRPEISQAGPTQGEVIPTGSSKPAGDQLPAALWTSSAVLGLLLLALPTYHLWKRCRHLAEDDTHPPASLRLLPQVSAWAGLRGTGQVGISPS
notes: also called pcD3huMAd4; pCDhuMAd4
- binding result (human α4β1 integrin [1]): no binding
- binding result (human α4β7 integrin [3]): binds
- binding result (murine α4β7 integrin [4]): binds

B3: macaque MAdCAM-1 (cDNA clone 31D) (receptor)
chain: QSLQVKPLQVEPPEPVVAVALGASRQLTCRLDCADRGATVQWRGLDTSLGAVQSDAGRSVLTVRNASLSAAGTRVCVGSCGGRTFQHTVRLLVYAFPDQLTISPAALVPGDPEVACTAHKVTPVDPNALSFSLLLGDQELEGAQALGPEVEEEEEEPQEEEDVLFRVTERWRLPTLATPVLPALYCQATMRLPGLELSHRQAIPVLHGPTSREPPDTTSPEPRAATSPETTPQQGSTHSPRSPGSTRTCRPEISQAGPTQGEVIPTGSSKPTGDQLPAALWTSSAVLGLLLLALPTYHLWKRCRHLAEDGAHPPASLSSQPFPL
notes: Expressed on CHO/P or L1-2 cells; also called pcD3pMAd; pCD3PMad
- binding result (human α4β1 integrin [5]): no binding

B4: human MAdCAM-1 (cDNA clone 20) (receptor)
chain: QSLQVKPLQVEPPEPVVAVALGASRQLTCRLACADRGASVQWRGLDTSLGAVQSDTGRSVLTVRNASLSAAGTRVCVGSCGGRTFQHTVQLLVYAFPDQLTVSPAALVPGDPEVACTAHKVTPVDPNALSFSLLVGGQELEGAQALGPEVQEEEEEPQGDEDVLFRVTERWRLPPLGTPVPPALYCQATMRLPGLELSHRQAIPVLHSPTSPEPPDTTSPESPDTTSPESPDTTSQEPPDTTSPEPPDKTSPEPAPQQGSTHTPRSPGSTRTRRPEISQAGPTQGEVIPTGSSKPAGDQLPAALWTSSAVLGLLLLALPTYHLWKRCRHLAEDDTHPPASLRLLPQVSAWAGLRGTGQVGISPS
notes: Isoform with a shorter mucin domain, expressed on CHO/P cells; also called pcD3huMAd20
- binding result (murine α4β7 integrin [6]): binds
- binding result (human α4β7 integrin [3]): binds

B5: seven domain human VCAM-1 (receptor, UniProt P19320 25-739, looked up)
chain: FKIETTPESRYLAQIGDSVSLTCSTTGCESPFFSWRTQIDSPLNGKVTNEGTTSTLTMNPVSFGNEHSYLCTATCESRKLEKGIQVEIYSFPKDPEIHLSGPLEAGKPITVKCSVADVYPFDRLEIDLLKGDHLMKSQEFLEDADRKSLETKSLEVTFTPVIEDIGKVLVCRAKLHIDEMDSVPTVRQAVKELQVYISPKNTVISVNPSTKLQEGGSVTMTCSSEGLPAPEIFWSKKLDNGNLQHLSGNATLTLIAMRMEDSGIYVCEGVNLIGKNRKEVELIVQEKPFTVEISPGPRIAAQIGDSVMLTCSVMGCESPSFSWRTQIDSPLSGKVRSEGTNSTLTLSPVSFENEHSYLCTVTCGHKKLEKGIQVELYSFPRDPEIEMSGGLVNGSSVTVSCKVPSVYPLDRLEIELLKGETILENIEFLEDTDMKSLENKSLEMTFIPTIEDTGKALVCQAKLHIDDMEFEPKQRQSTQTLYVNVAPRDTTVLVSPSSILEEGSSVNMTCLSQGFPAPKILWSRQLPNGELQPLSENATLTLISTKMEDSGVYLCEGINQAGRSRKEVELIIQVTPKDIKLTAFPSESVKEGDTVIISCTCGNVPETWIILKKKAETGDTVLKSIDGAYTIRKAQLKDAGVYECESKNKVGSQLRSLTLDVQGRENNKDYFSPELLVLYFASSLIIPAIGMIIYFARKANMKGSYSLVEAQKSKV
notes: whole, on cells; Transiently expressed on CHO/P cells; also called pCD3VCAM
- binding result (human α4β7 integrin [7]): no binding
- binding result (human α4β1 integrin [8]): binds
